The results in this text go back to US20210300993A1 (AVALON GLOBOCARE, published 2021).

Test [1] deals with T1, IL29 (UniProt Q8IU54 20-200, limits assumed). Kind of test: MicroScale Thermophoresis (MST), fluorescently labelled receptor fusion titrated with IL29. The source says:
(§1) FIG. 3A-3D. MST ligand binding measurements. The receptors were labeled with fluorescent dye. The ligands were purchased commercially from and dissolved in di water. (FIG. 3A) IL4Rα^QTY-Fc with IL4; (FIG. 3B) IL10Rα^QTY-Fc with IL10; (FIG. 3C) IFNγR1^QTY-Fc with IFNγ; (FIG. 3D) […].
(§2) MicroScale Thermophoresis (MST) is an optical method detecting changes in thermophoretic movement and TRIC of the protein-attached fluorophore upon ligand binding. Active labelled proteins contribute to the thermophoresis signal upon ligand binding. […] Herein ligand binding experiments were carried out with 5 nM NT647-labeled protein in 1× PBS, 10 mM DTT buffer with different concentration of arginine, against a gradient of respective ligands on a Monolith NT.115 pico instrument at 25° C. Synthesized receptors were labeled with Monolith NT™ 2nd generation protein labeling kit RED-NHS (NanoTemper Technologies) so as to obtain unique fluorescent signals. MST time traces were recorded and analyzed to obtain the highest possible signal-to-noise levels and amplitudes, >5 Fnorm units. The recorded fluorescence was plotted against the concentration of ligand, and curve fitting was performed using the Kd fit formula derived from the law of mass action. For clarity, binding graphs of each independent experiment were normalized to the fraction bound (0=unbound, 1=bound). […]

In test [2] the target is T1, IL29. Kind of test: MicroScale Thermophoresis, 5 nM NT647-labeled receptor fusion against a gradient of ligand, 25 C. The method, then:
(§3) The affinity of QTY modified cytokine receptor fused with Fc of IgG for their respective native ligands was measured using MicroScale Thermophoresis (MST). Changes in thermophoretic movement for labeled proteins upon ligand-binding were recorded and plotted as a function of ligand concentration.
(§4) MicroScale Thermophoresis (MST) is an optical method detecting changes in thermophoretic movement and TRIC of the protein-attached fluorophore upon ligand binding. Active labelled proteins contribute to the thermophoresis signal upon ligand binding. […] Herein ligand binding experiments were carried out with 5 nM NT647-labeled protein in 1× PBS, 10 mM DTT buffer with different concentration of arginine, against a gradient of respective ligands on a Monolith NT.115 pico instrument at 25° C. Synthesized receptors were labeled with Monolith NT™ 2nd generation protein labeling kit RED-NHS (NanoTemper Technologies) so as to obtain unique fluorescent signals. MST time traces were recorded and analyzed to obtain the highest possible signal-to-noise levels and amplitudes, >5 Fnorm units. The recorded fluorescence was plotted against the concentration of ligand, and curve fitting was performed using the Kd fit formula derived from the law of mass action. For clarity, binding graphs of each independent experiment were normalized to the fraction bound (0=unbound, 1=bound). MST experiments were performed in the Center for Macromolecular Interactions at Harvard Medical School.
A general note: MST reads how a fluorescent partner responds to local heating, with and without ligand.

The target in test [3] is T2, IL10 (UniProt P22301 19-178). Described as above. The method, then:
as §3, §4

Test [4] addresses T2, IL10. Kind of test: MicroScale Thermophoresis (MST), fluorescently labelled receptor fusion titrated with IL10.
Source text: as §1, §2

Test [5] deals with T3, IFNγ (UniProt P01579 24-166, limits assumed).
T3 sequence (looked up): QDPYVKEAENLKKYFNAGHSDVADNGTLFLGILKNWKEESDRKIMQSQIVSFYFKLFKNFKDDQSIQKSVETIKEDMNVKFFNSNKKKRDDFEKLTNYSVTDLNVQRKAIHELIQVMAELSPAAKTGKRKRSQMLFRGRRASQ
Kind of test: MicroScale Thermophoresis, 5 nM NT647-labeled receptor fusion against a gradient of ligand, 25 C. The protocol:
as §3, §4

Test [6] concerns the target T3, IFNγ. Kind of test: MicroScale Thermophoresis (MST), fluorescently labelled receptor fusion titrated with IFNγ.
Source text: as §1, §2

T2 sequence (P22301 19-178 limits assumed): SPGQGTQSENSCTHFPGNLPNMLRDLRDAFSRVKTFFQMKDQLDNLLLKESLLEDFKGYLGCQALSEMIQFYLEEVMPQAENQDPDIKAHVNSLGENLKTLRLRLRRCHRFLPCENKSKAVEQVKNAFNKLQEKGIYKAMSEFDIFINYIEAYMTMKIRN
T1 sequence (Q8IU54 20-200 limits assumed): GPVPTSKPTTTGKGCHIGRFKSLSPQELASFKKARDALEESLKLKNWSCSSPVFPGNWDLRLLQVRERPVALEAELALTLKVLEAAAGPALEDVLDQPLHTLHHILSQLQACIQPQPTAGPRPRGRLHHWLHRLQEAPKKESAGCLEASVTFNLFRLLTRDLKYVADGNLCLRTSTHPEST

B1: IFNλR1^QTY-Fc (HUMAN Interferon lambda receptor 1-Fc fusion) (Fc fusion)
chain: RPRLAPPQNVTLLSQNFSVYLTWLPGLGNPQDVTYFVAYQSSPTRRRWREVEECAGTKELLCSMMCLKKQDLYNKFKGRVRTVSPSSKSPWVESEYLDYLFEVEPAPPVLVLTQTEEILSANATYQLPPCMPPLDLKYEVAFWKEGAGNKTLFPVTPHGQPVQITLQPAASEHHCLSARTIYTFSVPKYSKFSKPTCFLLEVPEANWAYQTQPSQQTQQQTTAAGGTTWKTLMGNTETSQVAPAHHHHHHHHHHGSKLVDPRGPTIKPCPPCKCPAPNLLGGPSVFIFPPKIKDVLMISLSPIVTCVVVDVSEDDPDVQISWFVNNVEVHTAQTQTHREDYNSTLRVVSALPIQHQDWMSGKEFKCKVNNKDLPAPIERTISKPKGSVRAPQVYVLPPPEEEMTKKQVTLTCMVTDFMPEDIYVEWTNNGKTELNYKNTEPVLDSDGSYFMYSKLRVEKKNWVERNSYSCSVVHEGLHNHHTTKSFSRTPGK
modifications: labeled with NT647 RED-NHS fluorescent dye for MST
Take B1: the “EC50 (read off the curve)” value with IL29 [1] is approximately 10 nM. This molecule also registered a Kd in the test with IL29 [2] of 11.5 nM.

B2: IL10Rα^QTY-Fc (HUMAN Interleukin-10 receptor subunit alpha-Fc fusion) (Fc fusion)
chain: HGTELPSPPSVWFEAEFFHHILHWTPIPNQSESTCYEVALLRYGIESWNSISNCSQTLSYDLTAVTLDLYHSNGYRARVRAVDGSRHSNWTVTNTRFSVDEVTLTVGSVNLEIHNGFILGKIQLPRPKMAPANDTYESIFSHFREYEIAIRKVPGNFTFTHKKVKHENFSLLTSGEVGEFCVQVKPSVASRSNKGMWSKEECISLTRQYFTVTNTTTYYAYTQQQSGAQAYCQAQQLYVRRRKKTETSQVAPAHHHHHHHHHHGSKLVDPRGPTIKPCPPCKCPAPNLLGGPSVFIFPPKIKDVLMISLSPIVTCVVVDVSEDDPDVQISWFVNNVEVHTAQTQTHREDYNSTLRVVSALPIQHQDWMSGKEFKCKVNNKDLPAPIERTISKPKGSVRAPQVYVLPPPEEEMTKKQVTLTCMVTDFMPEDIYVEWTNNGKTELNYKNTEPVLDSDGSYFMYSKLRVEKKNWVERNSYSCSVVHEGLHNHHTTKSFSRTPGK
modifications: labeled with NT647 RED-NHS fluorescent dye for MST
The molecule B2 returned a dissociation constant (Kd) in the test with IL10 [3] of 1.6 nM. Moreover, the concentration giving a half-maximal response (EC50 (read off the curve)) in the test with IL10 [4] was approximately 4 nM.

B3: IFNγR1^QTY-Fc (HUMAN Interferon gamma receptor 1-Fc fusion) (Fc fusion)
chain: EMGTADLGPSSVPTPTNVTIESYNMNPIVYWEYQIMPQVPVFTVEVKNYGVKNSEWIDACINISHHYCNISDHVGDPSNSLWVRVKARVGQKESAYAKSEEFAVCRDGKIGPPKLDIRKEEKQIMIDIFHPSVFVNGDEQEVDYDPETTCYIRVYNVYVRMNGSEIQYKILTQKEDDCDEIQCQLAIPVSSLNSQYCVSAEGVLHVWGVTTEKSKEVCITIFNSSIKGSQWTPTTAAQQQYQTQSQTYTCFYIKKTETSQVAPAHHHHHHHHHHGSKLVDPRGPTIKPCPPCKCPAPNLLGGPSVFIFPPKIKDVLMISLSPIVTCVVVDVSEDDPDVQISWFVNNVEVHTAQTQTHREDYNSTLRVVSALPIQHQDWMSGKEFKCKVNNKDLPAPIERTISKPKGSVRAPQVYVLPPPEEEMTKKQVTLTCMVTDFMPEDIYVEWTNNGKTELNYKNTEPVLDSDGSYFMYSKLRVEKKNWVERNSYSCSVVHEGLHNHHTTKSFSRTPGK
modifications: labeled with NT647 RED-NHS fluorescent dye for MST
Consider B3, for which, in the test with IFNγ [5], binding was put at a Kd of 6.2 nM. In addition, the “EC50 (read off the curve)” value with IFNγ [6] was approximately 9 nM.

A word on the EC50 (read off the curve): it is the concentration giving half of the maximal effect. Read a low EC50 (read off the curve) as greater potency. One may read the Kd as the concentration at which binding is half-saturated.
